Blank lines part the entries; values can stand above or below the molecule they belong to.
Key:
[1] = biological target: Mis12 complex (full length; MIS12, PMF1, NSL1, DSN1) (human) (UniProt Q9H081); experiment: BLI
[2] = biological target: Mis12 complex (full length; MIS12, PMF1, NSL1, DSN1) (human) (UniProt Q9H081); experiment: ITC
[3] = biological target: Mis12C/KNL1^2026-2342 complex (human) (UniProt Q9H081); experiment: BLI
[4] = biological target: Ndc80 complex (NDC80/HEC1, NUF2, SPC24, SPC25) (human, UniProt O14777 1-642; Q9BZD4 1-464; Q8NBT2 1-197; Q9HBM1 1-224); experiment: BLI
[5] = biological target: T1, NSL1 (subunit of the Mis12 complex in the KMN cryo-EM sample) (human, UniProt Q96IY1 1-281); experiment: cryo-EM structure
T1 sequence (looked up): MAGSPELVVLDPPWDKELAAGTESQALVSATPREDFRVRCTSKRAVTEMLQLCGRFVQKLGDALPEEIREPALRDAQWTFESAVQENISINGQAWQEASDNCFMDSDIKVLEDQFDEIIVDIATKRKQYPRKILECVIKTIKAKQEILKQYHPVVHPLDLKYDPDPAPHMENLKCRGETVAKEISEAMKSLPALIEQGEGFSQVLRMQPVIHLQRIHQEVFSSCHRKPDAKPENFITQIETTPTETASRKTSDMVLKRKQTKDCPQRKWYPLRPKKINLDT

[6] = biological target: T2, DSN1 (subunit of the Mis12 complex in the KMN cryo-EM sample) (human, UniProt Q9H410 1-356); experiment: cryo-EM structure
T2 sequence (looked up): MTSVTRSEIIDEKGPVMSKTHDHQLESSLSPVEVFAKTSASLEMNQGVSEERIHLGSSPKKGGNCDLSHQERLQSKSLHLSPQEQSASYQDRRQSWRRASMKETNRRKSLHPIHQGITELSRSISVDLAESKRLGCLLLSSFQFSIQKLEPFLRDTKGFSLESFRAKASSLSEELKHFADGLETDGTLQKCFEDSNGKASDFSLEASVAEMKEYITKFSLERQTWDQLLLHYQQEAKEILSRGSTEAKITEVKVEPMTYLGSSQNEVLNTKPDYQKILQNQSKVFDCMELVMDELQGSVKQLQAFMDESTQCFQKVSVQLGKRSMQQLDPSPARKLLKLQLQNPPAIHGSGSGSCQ

[7] = biological target: Mis12 complex mutant Mis12C^M4 (human) (UniProt Q9H081); experiment: ITC
[8] = biological target: Mis12 complex mutant Mis12C^M3 (human) (UniProt Q9H081); experiment: ITC
SPC25 residues 92-224 = biological target: T3, SPC25 residues 92-224 (human, UniProt Q9HBM1 92-224); experiment: cryo-EM structure
T3 sequence (looked up): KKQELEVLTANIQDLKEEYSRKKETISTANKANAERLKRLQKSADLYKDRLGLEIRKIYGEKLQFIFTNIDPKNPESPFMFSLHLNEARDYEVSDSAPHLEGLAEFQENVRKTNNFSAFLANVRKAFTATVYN

Sequence of Ndc80 complex (NDC80/HEC1, NUF2, SPC24, SPC25) (O14777 whole entry, chain 1 of 2): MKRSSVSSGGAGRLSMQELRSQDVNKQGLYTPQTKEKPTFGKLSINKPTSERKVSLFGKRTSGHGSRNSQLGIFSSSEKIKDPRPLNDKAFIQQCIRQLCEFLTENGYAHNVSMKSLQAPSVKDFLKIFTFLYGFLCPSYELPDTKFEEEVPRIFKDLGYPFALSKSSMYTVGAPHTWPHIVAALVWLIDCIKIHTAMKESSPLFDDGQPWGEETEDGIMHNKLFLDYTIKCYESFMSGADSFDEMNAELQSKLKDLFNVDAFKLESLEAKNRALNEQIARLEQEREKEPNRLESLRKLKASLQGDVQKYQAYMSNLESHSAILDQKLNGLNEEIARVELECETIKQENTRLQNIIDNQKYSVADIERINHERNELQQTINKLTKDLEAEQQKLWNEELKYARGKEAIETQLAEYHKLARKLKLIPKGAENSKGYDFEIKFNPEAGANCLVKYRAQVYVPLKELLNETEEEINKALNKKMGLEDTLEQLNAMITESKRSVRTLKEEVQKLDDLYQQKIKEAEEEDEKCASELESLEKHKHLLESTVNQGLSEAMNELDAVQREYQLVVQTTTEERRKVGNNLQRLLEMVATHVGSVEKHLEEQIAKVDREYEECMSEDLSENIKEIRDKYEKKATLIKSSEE
Sequence of Ndc80 complex (NDC80/HEC1, NUF2, SPC24, SPC25) (Q9BZD4 whole entry, chain 2 of 2): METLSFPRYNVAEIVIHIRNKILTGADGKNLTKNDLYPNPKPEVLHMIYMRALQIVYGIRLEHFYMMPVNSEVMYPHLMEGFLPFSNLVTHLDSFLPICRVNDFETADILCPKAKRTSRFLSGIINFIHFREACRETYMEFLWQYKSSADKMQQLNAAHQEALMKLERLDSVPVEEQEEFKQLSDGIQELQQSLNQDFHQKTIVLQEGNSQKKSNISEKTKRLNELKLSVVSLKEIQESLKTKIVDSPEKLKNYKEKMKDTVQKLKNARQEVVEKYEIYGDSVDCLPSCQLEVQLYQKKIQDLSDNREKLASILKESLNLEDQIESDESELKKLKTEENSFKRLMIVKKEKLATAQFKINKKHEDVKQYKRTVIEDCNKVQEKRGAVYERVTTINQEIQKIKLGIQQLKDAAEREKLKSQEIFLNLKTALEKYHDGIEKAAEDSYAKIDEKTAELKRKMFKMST

Kd [1]: 2 nM
Kd [2]: 1.6 nM
Molecule: KNL1 residues 2026-2342 (domain or fragment)

Kd [3]: 1 nM
koff [3]: 0.0001 s⁻¹
Molecule: Ndc80 complex (NDC80/HEC1, NUF2, SPC24, SPC25) (from UniProt O14777 1-642; Q9BZD4 1-464; Q8NBT2 1-197; Q9HBM1 1-224)

Kd [4]: ~6 nM
koff [4]: ~0.0001 s⁻¹
B1: Mis12 complex (full length; MIS12, PMF1, NSL1, DSN1) (complex, human)
chain 1: MSVDPMTYEAQFFGFTPQTCMLRIYIAFQDYLFEVMQAVEQVILKKLDGIPDCDISPVQIRKCTEKFLCFMKGHFDNLFSKMEQLFLQLILRIPSNILLPEDKCKETPYSEEDFQHLQKEIEQLQEKYKTELCTKQALLAELEEQKIVQAKLKQTLTFFDELHNVGRDHGTSDFRESLVSLVQNSRKLQNIRDNVEKESKRLKIS
chain 2: MAEASSANLGSGCEEKRHEGSSSESVPPGTTISRVKLLDTMVDTFLQKLVAAGSYQRFTDCYKCFYQLQPAMTQQIYDKFIAQLQTSIREEISDIKEEGNLEAVLNALDKIVEEGKVRKEPAWRPSGIPEKDLHSVMAPYFLQQRDTLRRHVQKQEAENQQLADAVLAGRRQVEELQLQVQAQQQAWQALHREQRELVAVLREPE
chain 3: T1 sequence (looked up)
chain 4: T2 sequence (looked up)

binding result [5]: binds
binding result [6]: binds
fold reduction of the binding affinity against wild-type Mis12C [7]: 10 fold
fold reduction of the binding affinity against wild-type Mis12C [8]: 20 fold
B2: SPC24^109-197/SPC25^92-224 dimer (complex, human)
chain 1: EELKEIEADLERQEKEVDEDTTVTIPSAVYVAQLYHQVSKIEWDYECEPGMVKGIHHGPSVAQPIHLDSTQLSRKFISDYLWSLVDTEW
chain 2: T3 sequence (looked up)

binding result (SPC25 residues 92-224): binds
B3: SPC24 residues 109-197 (domain or fragment, human, UniProt Q8NBT2 109-197, looked up)
chain: B2 chain 1

— article doi:10.1101/2023.08.07.552315 (bioRxiv, 2023)
